B1: VHH A2R3-55 (VHH)
VHH: QVQLQESGGGLVQAGGSLRLSCAASGSIDRIDAMGWSRQAPGKQRELVATITTGGITNYAVSVKGRFTISRDNAKNTVYLQMNSLKPEDTAVYYCNAQGAPSWGLYEDYWGQGTQVTVSS
B2: bivalent VHH A2R3-59-59 (VHH)
chain: QVQLQESGGGLVQPGGSLRLSCAASGSISGINGMGWYRQAPGKQRELVAAITSGGSTNYADSVKGRFTISRDNAKNTVDLQMNSLQPEDTAVYYCYVSSTPSWGLYDDYWGQGTQVTVSSGGGGSGGGGSGGGGSQVQLQESGGGLVQPGGSLRLSCAASGSISGINGMGWYRQAPGKQRELVAAITSGGSTNYADSVKGRFTISRDNAKNTVDLQMNSLQPEDTAVYYCYVSSTPSWGLYDDYWGQGTQVTVSS
notes: also called bivalent A2R3-59

Tests used:
[1] = biological target: T1, hPIV-3 fusion protein (F), expressed on transfected HEK293T cells (human parainfluenza virus 3 (hPIV-3), UniProt P06828 19-539); assay: flow cytometry on transfected HEK293T cells (FIG. 4)
T1 construct: whole, on cells

[2] = biological target: T2, D275N- and R277T-mutant hPIV-3 HN, expressed on transfected HEK293T cells (human parainfluenza virus 3 (hPIV-3), UniProt P08492 1-572); assay: flow cytometry on transfected HEK293T cells (FIG. 11C)
T2 construct: also called mut HN3
T2 chain: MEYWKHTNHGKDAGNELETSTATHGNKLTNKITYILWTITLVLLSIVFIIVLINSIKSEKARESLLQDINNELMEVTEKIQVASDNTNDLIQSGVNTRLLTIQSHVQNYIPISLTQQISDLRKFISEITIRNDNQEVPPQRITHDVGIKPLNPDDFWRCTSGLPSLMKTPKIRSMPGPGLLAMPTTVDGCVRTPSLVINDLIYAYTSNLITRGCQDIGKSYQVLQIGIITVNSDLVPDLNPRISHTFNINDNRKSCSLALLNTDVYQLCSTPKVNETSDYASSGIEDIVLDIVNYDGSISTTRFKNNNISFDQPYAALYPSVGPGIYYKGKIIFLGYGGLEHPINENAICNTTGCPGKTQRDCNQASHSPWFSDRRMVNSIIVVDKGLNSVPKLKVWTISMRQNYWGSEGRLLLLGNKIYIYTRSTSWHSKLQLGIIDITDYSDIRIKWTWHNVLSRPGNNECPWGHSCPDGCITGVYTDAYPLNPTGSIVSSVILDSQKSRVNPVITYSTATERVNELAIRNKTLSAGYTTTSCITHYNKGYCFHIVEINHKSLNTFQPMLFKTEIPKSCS

[3] = biological target: T3, hPIV-1 hemagglutinin-neuraminidase (HN), expressed on transfected HEK293T cells (human parainfluenza virus 1 (hPIV-1), UniProt P16071 1-575); assay: flow cytometry on transfected HEK293T cells
T3 construct: whole, on cells; also called hPIV-1 HN; HN1
T3 sequence: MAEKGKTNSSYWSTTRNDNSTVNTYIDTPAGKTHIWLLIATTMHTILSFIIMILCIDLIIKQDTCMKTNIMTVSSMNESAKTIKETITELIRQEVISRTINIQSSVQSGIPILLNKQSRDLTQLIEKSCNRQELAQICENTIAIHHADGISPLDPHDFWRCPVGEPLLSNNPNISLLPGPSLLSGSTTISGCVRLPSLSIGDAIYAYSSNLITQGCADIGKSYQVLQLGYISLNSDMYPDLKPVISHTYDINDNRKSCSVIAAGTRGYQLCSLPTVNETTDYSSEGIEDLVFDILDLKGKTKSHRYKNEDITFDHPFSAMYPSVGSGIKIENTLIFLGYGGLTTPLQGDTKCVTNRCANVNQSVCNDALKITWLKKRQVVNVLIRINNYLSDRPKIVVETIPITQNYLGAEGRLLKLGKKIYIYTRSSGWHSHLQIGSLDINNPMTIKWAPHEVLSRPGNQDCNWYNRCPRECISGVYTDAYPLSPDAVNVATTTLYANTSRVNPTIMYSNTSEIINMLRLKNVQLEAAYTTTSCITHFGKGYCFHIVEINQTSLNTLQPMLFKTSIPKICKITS

[4] = biological target: T4, hPIV-3 hemagglutinin-neuraminidase (HN), expressed on transfected HEK293T cells (human parainfluenza virus 3 (hPIV-3), UniProt P08492 1-572)
T4 chain: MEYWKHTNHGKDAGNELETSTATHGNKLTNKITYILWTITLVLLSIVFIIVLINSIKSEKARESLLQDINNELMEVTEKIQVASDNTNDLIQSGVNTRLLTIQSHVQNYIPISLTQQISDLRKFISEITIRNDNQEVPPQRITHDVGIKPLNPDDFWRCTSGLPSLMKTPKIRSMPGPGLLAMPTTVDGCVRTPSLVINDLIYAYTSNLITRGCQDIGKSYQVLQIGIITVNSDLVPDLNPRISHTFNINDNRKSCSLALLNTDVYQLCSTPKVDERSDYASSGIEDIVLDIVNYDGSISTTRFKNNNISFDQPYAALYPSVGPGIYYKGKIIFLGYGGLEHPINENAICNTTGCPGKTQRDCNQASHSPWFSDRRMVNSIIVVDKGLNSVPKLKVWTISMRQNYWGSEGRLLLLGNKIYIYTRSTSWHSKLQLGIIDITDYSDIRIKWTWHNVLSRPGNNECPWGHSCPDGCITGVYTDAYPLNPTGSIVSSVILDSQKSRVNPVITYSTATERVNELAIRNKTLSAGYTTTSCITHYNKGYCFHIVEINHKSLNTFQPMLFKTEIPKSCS

[5] = biological target: HN of hPIV-3-GFP virus (on virions and on hPIV-3-infected cells) (human parainfluenza virus 3 (hPIV-3), UniProt P08492 1-572); assay: cell-based or functional assay
[6] = biological target: T5, HN of hPIV-1-GFP virus (on virions and on hPIV-1-infected cells) (human parainfluenza virus 1 (hPIV-1), UniProt P16071 1-575); assay: cell-based or functional assay
T5 sequence: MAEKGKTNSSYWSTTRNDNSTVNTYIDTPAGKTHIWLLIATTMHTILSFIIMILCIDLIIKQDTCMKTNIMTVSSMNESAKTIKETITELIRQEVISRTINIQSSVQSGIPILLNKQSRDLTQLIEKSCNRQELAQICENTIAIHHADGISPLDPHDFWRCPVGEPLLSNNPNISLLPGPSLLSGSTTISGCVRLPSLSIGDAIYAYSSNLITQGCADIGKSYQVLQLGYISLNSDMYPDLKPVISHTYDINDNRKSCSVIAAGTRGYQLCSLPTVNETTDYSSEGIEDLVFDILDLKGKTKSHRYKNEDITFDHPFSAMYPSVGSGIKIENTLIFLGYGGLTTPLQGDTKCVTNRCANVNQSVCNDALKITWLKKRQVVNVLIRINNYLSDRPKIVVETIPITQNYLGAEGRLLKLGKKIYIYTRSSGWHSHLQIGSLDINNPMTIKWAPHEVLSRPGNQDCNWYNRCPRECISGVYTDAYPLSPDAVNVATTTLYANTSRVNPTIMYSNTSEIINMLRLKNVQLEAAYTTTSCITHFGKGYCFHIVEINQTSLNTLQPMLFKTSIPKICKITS

[7] = biological target: T2, D275N- and R277T-mutant hPIV-3 HN, …; assay: flow cytometry on transfected HEK293T cells, VHH 1 or 0.1 µg/ml (FIG. 11C)
[8] = biological target: T4, hPIV-3 hemagglutinin-neuraminidase …; assay: flow cytometry on transfected HEK293T cells, 10 µg/ml (FIG. 16A)

| Binder | binding result [1] | binding result [2] | binding result [3] | fold reduction of binding at 500 µg/ml of zanamivir [4] | fold higher potency of hPIV-3-GFP neutralization than the monovalent counterpart [5] | IC50 of neutralization of hPIV-1-GFP on Vero (E6) TMPRSS2 cells [6] | binding result [7] | binding result [8] |
| --- | --- | --- | --- | --- | --- | --- | --- | --- |
| B1 | no binding (tested: 1 µg/ml) | no binding (tested: 1 or 0.1 µg/ml) | no binding | ~5 fold |  |  |  |  |
| B2 |  |  |  |  | ~8 fold | 2.9 nM | binds | binds |

From patent US20260159606A1 (VIB VZW, published 2026)
